Source: patent US20220235138A1, “CAR-T CELLS TARGETING IL-1RAP AND THEIR USE IN ACUTE MYELOID LEUKEMIA (AML)” (ETABLISSEMENT FRANCAIS DU SANG, priority 2019, published 2022)

Tests used:
[1] = molecular target: T1, recombinant IL-1RAP biotinylated protein (Homo sapiens, UniProt Q9NPH3); experiment: Flow cytometry detection of cell surface CAR with biotinylated recombinant IL-1RAP; assay type: binding; settings: for amount of recombinant IL-1RAP protein required for recruiting maximum of cells: single experiment
T1 sequence (Q9NPH3 21-359 limits assumed): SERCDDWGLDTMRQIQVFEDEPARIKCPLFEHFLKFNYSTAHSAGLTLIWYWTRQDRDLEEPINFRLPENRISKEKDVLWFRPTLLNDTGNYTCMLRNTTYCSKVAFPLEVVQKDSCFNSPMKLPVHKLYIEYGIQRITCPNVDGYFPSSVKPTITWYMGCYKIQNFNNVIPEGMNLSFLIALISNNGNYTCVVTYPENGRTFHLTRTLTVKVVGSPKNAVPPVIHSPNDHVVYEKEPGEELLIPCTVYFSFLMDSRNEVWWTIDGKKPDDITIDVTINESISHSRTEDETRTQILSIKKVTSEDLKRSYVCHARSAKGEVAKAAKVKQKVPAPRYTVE
Procedure: CEM cell line or primary T cells were transduced either with Mock or CAR IL-1RAP. Cells were then incubated in presence of increasing amount of recombinant IL-1RAP labelled with biotin. Staining was performed with an anti-biotin fluorescent antibody and analyzed by flow cytometry. Percentage of Biotin+/CD19+ CEM or T-cells plotted against amount of labelled biotin recombinant protein. Dot plots of cytometry analyze were provided for representative staining, including maximum. Untransduced T cells (C0) or Mock T cells were used as control.
Additional analysis using serial dilution of biotinylated IL-1RAP protein (from 20 ng to 2.4 pg/ml) and FACS analysis allow to detect either IL-1RAP CAR transduced CEM T cell line or primary T-cells.

[2] = tested on: iCASP9/AP1903 suicide system; experiment: Optical microscopy of transduced 293T cells after CID AP1903 exposure; assay type: cell-based, human; settings: CID AP1903 20 nM, 24 h (10 nM)
[3] = transduced primary T-cells (GMTC)

maximum percentage of Biotin+/CD19+ cells ([1]; transduced CEM T cell line): 85.8%
amount of recombinant IL-1RAP protein required for recruiting maximum of cells ([1]; transduced CEM T cell line): 1.25 ng
maximum percentage of Biotin+/CD19+ cells [1, 3]: 68.5%
amount of recombinant IL-1RAP protein required for recruiting maximum of cells [1, 3]: 0.15 ng
B1: IL-1RAP CAR: chimeric antigen receptor: #E3C3 scFv in frame with CD28-4.1BB-CD3z signaling chain; tested in transduced CEM, primary T or 293T cells (protein)
scFv: QVQLQQPGAELMMPGASVKVSCEASGYTFTDSWMHWVKQRPGQGLEWIGAIDPSDSYTTYNQKFTGKATLSVDESSNTAYMQLSSLTSEDSAVYYCARYYSGSNYISPFPYWGQGTLVTVSAGGSGGGGSGGGGSVDMESQIQVFVFVFLWLSGVDGDIVMTQSHKFMSTSVGDRVTITCKASLDVSTAVAWYQQKPGQSPKLLIYSASYRYTGVPDRFTGSGSGTDFTFTISSVQAEDLAVYYCQQHYSPPFTFGSGTNLEIK
modifications: left off: small tags and cut ends
notes: chimeric antigen receptor: #E3C3 scFv in frame with CD28-4.1BB-CD3z signaling chain; tested in transduced CEM, primary T or 293T cells
CAR recognition and binding of IL-1RAP protein [1]: CAR specific recognition and binding of IL-1RAP protein
sensitivity of transduced 293T cell culture to CID [2]: sensitive to the CID
